The values below come from PMC2148073.

In assay [1] the target is native syntaxin 1A from PC12 cells (rat (endogenous in PC12)) (UniProt P32851).
Assay [2] has the same target. This is another data set of the same source.

Sequence of UniProt P32851 (P32851 whole entry): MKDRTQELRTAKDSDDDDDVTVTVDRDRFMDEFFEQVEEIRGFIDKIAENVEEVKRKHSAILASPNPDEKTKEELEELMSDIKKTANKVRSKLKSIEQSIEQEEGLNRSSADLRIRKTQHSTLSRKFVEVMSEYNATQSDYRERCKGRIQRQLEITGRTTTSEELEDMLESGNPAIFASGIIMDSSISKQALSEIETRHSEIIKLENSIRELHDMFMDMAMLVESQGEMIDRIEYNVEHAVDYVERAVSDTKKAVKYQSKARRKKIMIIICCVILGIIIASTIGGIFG

On to “GST-fused Kv2.1-C1 protein (domain or fragment)”, for which the inhibition of Ca2+-triggered [3H]-NE release from cracked PC12 cells by 10–20 µM GST-fusion peptide present during priming and triggering; pair blocked: endogenous Kv2.1 with syntaxin in assay [1] came out at 60%. In assay [2], this substance yielded a half-maximal inhibition of Ca2+-triggered [3H]-NE release from cracked PC12 cells (dose response of GST-Kv2.1-C1); pair blocked: endogenous Kv2.1 with syntaxin of 2 µM and an inhibition of Ca2+-triggered [3H]-NE release from cracked PC12 cells at increasing concentrations of GST-Kv2.1-C1 (from 10 nM; saturation at 5 µM); pair blocked: endogenous Kv2.1 with syntaxin of 57%.
